US20170107293A1 (BIOINVENT INTERNATIONAL, published 2017)
Residue numbers refer to the chain shown, from its start. Each block holds one binder with its values, some of them ahead of it.

Tests used:
[1] = target: T1, human FcγRIIA on cells (human, UniProt P12318 34-317); assay: flow cytometry on human PBMC populations, MFI; monocytes and neutrophils read as hFcγRIIA-bearing as in the legend
T1 construct: whole, on cells; also called hFcγRIIA; FcγRIIA^+ve CHO
T1 sequence (looked up): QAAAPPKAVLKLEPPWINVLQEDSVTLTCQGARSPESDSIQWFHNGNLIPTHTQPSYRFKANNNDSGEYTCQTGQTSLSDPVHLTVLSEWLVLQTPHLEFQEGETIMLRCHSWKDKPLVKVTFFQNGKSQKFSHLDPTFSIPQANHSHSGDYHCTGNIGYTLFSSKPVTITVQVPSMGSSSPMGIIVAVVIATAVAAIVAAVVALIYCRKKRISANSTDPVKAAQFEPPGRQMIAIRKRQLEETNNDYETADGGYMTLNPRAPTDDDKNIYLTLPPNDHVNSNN

[2] = target: T2, human FcγRIIB on cells (human, UniProt P31994 43-310); assay: flow cytometry, mAb at 0.1, 1 and 10 µg/ml on B cells, MFI
T2 construct: whole, on cells; also called hFcγRIIB; CD32B
T2 sequence (looked up): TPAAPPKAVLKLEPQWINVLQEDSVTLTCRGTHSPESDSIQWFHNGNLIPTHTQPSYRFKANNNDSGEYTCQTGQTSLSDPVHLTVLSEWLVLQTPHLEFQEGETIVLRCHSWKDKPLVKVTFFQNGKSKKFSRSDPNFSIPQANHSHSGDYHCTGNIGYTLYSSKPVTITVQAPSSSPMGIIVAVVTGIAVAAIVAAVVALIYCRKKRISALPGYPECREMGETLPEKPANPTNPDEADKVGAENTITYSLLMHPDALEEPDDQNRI

[3] = target: T3, Soluble hFcγRIIB (R & D Systems) (human, UniProt P31994 46-217); assay: SPR, mAb immobilised, soluble hFcγRIIB injected; column headed KA (1/MS)
T3 construct: Bought reagent; also called hFcγRIIB fusion protein
T3 sequence (looked up): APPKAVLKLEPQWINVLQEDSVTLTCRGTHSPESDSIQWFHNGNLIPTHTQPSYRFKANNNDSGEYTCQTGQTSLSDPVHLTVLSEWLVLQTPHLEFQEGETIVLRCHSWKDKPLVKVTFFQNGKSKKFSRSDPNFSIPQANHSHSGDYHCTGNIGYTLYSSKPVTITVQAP
Procedure: (§1) A BIAcore T100 analyzer (GE Healthcare, UK) was used to determine the binding affinity of the hFcγRIIB mAb, as described elsewhere.²⁵ mAb were immobilized onto a CM5 sensorchip (GE Healthcare, UK), using standard amine coupling according to the manufacturer's instructions. Soluble hFcγRIIB (0.16-100 nM; R & D Systems, UK) was injected for 5 minutes and dissociation monitored for 10 minutes. Background binding to the control flow cell was monitored and subtracted automatically. The KD values were calculated from the 1:1 binding model using the BIAcore T100 Evaluation software.

[4] = target: T3, Soluble hFcγRIIB (R & D Systems); assay: SPR, mAb immobilised, soluble hFcγRIIB injected; column headed KD (1/s)
Procedure: as §1

[5] = target: T4, cynomolgus monkey FcγRIIB (cynomolgus monkey, UniProt A0A140HDP4 43-312); assay: IHC on frozen tissue sections
T4 construct: whole, on cells; also called FcγRIIB in other species
T4 sequence: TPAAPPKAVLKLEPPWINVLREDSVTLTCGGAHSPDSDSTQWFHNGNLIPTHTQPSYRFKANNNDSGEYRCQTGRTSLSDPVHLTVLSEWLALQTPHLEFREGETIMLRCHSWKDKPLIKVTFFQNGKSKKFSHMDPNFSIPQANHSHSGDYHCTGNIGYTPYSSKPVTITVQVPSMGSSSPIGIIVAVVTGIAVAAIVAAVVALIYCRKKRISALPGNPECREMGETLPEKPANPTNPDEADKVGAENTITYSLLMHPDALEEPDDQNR

[6] = target: T5, mouse FcγRIIB (mouse, UniProt P08101 30-330); assay: IHC on frozen tissue sections
T5 construct: whole, on cells; also called mFcγRII; FcγRIIB in other species
T5 sequence (looked up): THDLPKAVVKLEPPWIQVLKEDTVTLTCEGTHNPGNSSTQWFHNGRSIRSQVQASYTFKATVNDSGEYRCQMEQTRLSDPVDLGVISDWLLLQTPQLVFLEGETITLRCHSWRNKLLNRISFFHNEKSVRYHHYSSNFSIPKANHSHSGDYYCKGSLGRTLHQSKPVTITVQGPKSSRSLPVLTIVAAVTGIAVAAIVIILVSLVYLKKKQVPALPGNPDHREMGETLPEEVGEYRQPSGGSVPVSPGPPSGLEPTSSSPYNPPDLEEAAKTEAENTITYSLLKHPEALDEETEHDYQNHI

[7] = target: T6, rat FcγRIIB (rat, UniProt A0A0G2K9R6 42-295); assay: IHC on frozen tissue sections
T6 construct: also called FcγRIIB in other species
T6 sequence: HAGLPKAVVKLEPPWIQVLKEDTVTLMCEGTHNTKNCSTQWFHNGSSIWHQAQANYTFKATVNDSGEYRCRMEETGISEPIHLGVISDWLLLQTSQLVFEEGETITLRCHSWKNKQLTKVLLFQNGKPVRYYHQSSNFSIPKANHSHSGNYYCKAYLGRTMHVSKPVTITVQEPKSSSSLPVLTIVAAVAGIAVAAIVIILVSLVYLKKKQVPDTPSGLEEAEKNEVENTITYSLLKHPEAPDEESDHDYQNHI

[8] = target: T1, human FcγRIIA on cells; assay: not specified (summary in the discussion)
[9] = target: T3, Soluble hFcγRIIB (R & D Systems); assay: SPR (Biacore T100), mAb immobilised on CM5, soluble hFcγRIIB injected, 1:1 model; column headed KD (1/s)
Procedure: as §1

[10] = target: T3, Soluble hFcγRIIB (R & D Systems); assay: SPR (Biacore T100), mAb immobilised on CM5, soluble hFcγRIIB injected, 1:1 model; column headed KA (1/MS)
Procedure: as §1

[11] = target: T3, Soluble hFcγRIIB (R & D Systems); assay: SPR, mAb immobilised, soluble hFcγRIIB injected
Procedure: as §1

[12] = target: T3, Soluble hFcγRIIB (R & D Systems); assay: SPR (Biacore T100), mAb immobilised on CM5, soluble hFcγRIIB injected, 1:1 model
Procedure: as §1

[13] = target: T1, human FcγRIIA on cells; assay: binding to FcγRIIA-transfected CHO-k1 cells
[14] = target: T2, human FcγRIIB on cells; assay: binding to hFcγRIIB-transfected cells, total fluorescence intensity against mAb concentration [2/2) bottom]
[15] = target: T2, human FcγRIIB on cells; assay: inhibition of binding of IC to hFcγRIIB-transfected cells by the mAb [2/2) bottom]
[16] = target: T3, Soluble hFcγRIIB (R & D Systems); assay: SPR, mAb immobilised, soluble hFcγRIIB injected; Table 2 gives the same values for 6G08
Procedure: as §1

[17] = target: T3, Soluble hFcγRIIB (R & D Systems); assay: SPR, mAb immobilised, soluble hFcγRIIB injected; column headed KD (1/s); Table 2 gives the same values for 6G08
Procedure: as §1

[18] = target: T1, human FcγRIIA on cells; assay: binding to FcγRIIA-transfected CHO-k1 cells; remark: listed apart in the source

B1: 6A09 (antibody, human IgG1, V domains shown)
VH: EVQLLESGGGLVQPGGSLRLSCAASGFTFSSYGMHWVRQAPGKGLEWVAVTSYDGNTKYYANSVKGRFTISRDNSKNTLYLQMNSLRAEDTAVYYCAREDCGGDCFDYWGQGTLVTVSS
VL: QSVLTQPPSASGTPGQRVTISCTGSSSNIGAGYDVHWYQQLPGTAPKLLIYGNSNRPSGVPDRFSGSKSGTSASLAISGLRSEDEADYYCAAWDDSLNEGVFGGGTKLTVLG
notes: hFcγRIIB mAb said to be likely dual-specific for hFcγRIIA and B; human IgG1 (WT); Only VH/VL tied to the clone; also called Antibody clone: 6A09
binding result [1]: binds

B3: 6G11 (antibody, human IgG1, V domains shown)
VH: EVQLLESGGGLVQPGGSLRLSCAASGFTFSSYGMHWVRQAPGKGLEWMAVISYDGSNKYYADSVKGRFTISRDNSKNTLYLQMNSLRAEDTAVYYCARELYDAFDIWGQGTLVTVSS
VL: B1 VL with G52A, N53D, S54D, N55H, A92S, L97Q, N98R, E99A, G100V, V101I
notes: Lead antagonistic hFcγRIIB mAb, human IgG1 (WT); Only VH/VL tied to the clone; also called Antibody clone: 6G11; WT 6G11
kon [3]: 6.9e+06 M⁻¹ s⁻¹
koff [4]: 0.182 s⁻¹
binding result [5]: no binding
binding result [6]: no binding
binding result [7]: no binding
binding result [8]: no binding
koff [9]: 0.182 s⁻¹
kon [10]: 6.9e+06 M⁻¹ s⁻¹
Kd [11]: 26.4 nM
Kd [12]: 26.4 nM

B4: 6G08 (antibody, human IgG1, V domains shown)
VH: EVQLLESGGGLVQPGGSLRLSCAASGFTLSSYGISWVRQAPGKGLEWVSGISGSGGNTYYADSVKGRFTISRDNSKNTLYLQMNSLRAEDTAVYYCASSVGAYANDAFDIWGQGTLVTVSS
VL: B1 VL with N53D, S54T, E99G, G100P
notes: hFcγRIIB mAb (agonistic), human IgG1 (WT); Only VH/VL tied to the clone; also called Antibody clone: 6G08
binding result [13]: no binding
koff [9]: 0.337 s⁻¹
kon [10]: 472000 M⁻¹ s⁻¹
Kd [12]: 713 nM

B6: 5C04 (antibody, human IgG1, V domains shown)
VH: B3 VH with S31N, M48V, L100W, Y101R
VL: QSVLTQPPSASGTPGQRVTISCTGSSSNIGAGYDVHWYQQLPGTAPKLLIYSDNQRPSGVPDRFSGSKSGTSASLAISGLRSEDEADYYCAAWDDSLSGSWVFGGGTKLTVLG
notes: hFcγRIIB mAb, human IgG1 (WT); Only VH/VL tied to the clone; also called Antibody clone: 5C04
kon [3]: 324000 M⁻¹ s⁻¹
koff [4]: 0.0481 s⁻¹
EC50 (read off the curve) [14]: ~0.4 nM
koff [9]: 0.0481 s⁻¹
kon [10]: 324000 M⁻¹ s⁻¹
Kd [11]: 142 nM
Kd [12]: 142 nM
IC50 (read off the curve) [15]: ~0.6 nM

B8: 5C05 (antibody, human IgG1, V domains shown)
VH: B3 VH with S31T, M48V, L100N, Y101F, I106V
VL: B6 VL with D53N, N54S, S98N, S100Q, W101V
notes: hFcγRIIB mAb, human IgG1 (WT); Only VH/VL tied to the clone; also called Antibody clone: 5C05
kon [3]: 802 M⁻¹ s⁻¹
koff [4]: 0.00177 s⁻¹
binding result [18]: no binding
koff [9]: 0.00177 s⁻¹
kon [10]: 802 M⁻¹ s⁻¹
Kd [11]: 2210 nM
Kd [12]: 2210 nM

B9: 7C07 (antibody, human IgG1, V domains shown)
VH: EVQLLESGGGLVQPGGSLRLSCAASGFTFSSYGMHWVRQAPGKGLEWVAVISYDGSNKYYADSVKGRFTISRDNSQNTLYLQMNSLRAEDTAVYYCAREFGYIILDYWGQGTLVTVSS
VL: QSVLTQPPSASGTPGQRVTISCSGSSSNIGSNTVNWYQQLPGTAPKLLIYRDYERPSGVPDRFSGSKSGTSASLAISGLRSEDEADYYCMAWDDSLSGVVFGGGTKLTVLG
notes: Antagonistic hFcγRIIB mAb, human IgG1 (WT); Only VH/VL tied to the clone; also called Antibody clone: 7C07
kon [3]: 913000 M⁻¹ s⁻¹
koff [4]: 0.0185 s⁻¹
binding result [5]: no binding
binding result [6]: no binding
binding result [7]: no binding
koff [9]: 0.0185 s⁻¹
kon [10]: 913000 M⁻¹ s⁻¹
Kd [11]: 23.9 nM
Kd [12]: 23.9 nM

The next lines start with the values.

binding result [2]: no binding (tested: 10 µg/ml)
B2: 1E05 (antibody, human IgG1, V domains shown)
VH: EVQLLESGGGLVQPGGSLRLSCAASGFTFSTYAMNWVRQVPGKGLEWVAVISYDGSNKNYVDSVKGRFTISRDNSKNTLYLQMNSLRAEDTAVYYCARNFDNSGYAIPDAFDIWGQGTLVTVSS
VL: B1 VL with G52D, S54N, N55S, N98G, E99G, G100P
notes: Only VH/VL tied to the clone; also called Antibody clone: 1E05

binding result [2]: no binding (tested: 10 µg/ml)
B5: 2A09 (antibody, human IgG1, V domains shown)
VH: EVQLLESGGGLVQPGGSLRLSCAASGFTFSNAWMSWVRQAPGKGLEWVAYISRDADITHYPASVKGRFTISRDNSKNTLYLQMNSLRAEDTAVYYCTTGFDYAGDDAFDIWGQGTLVTVSS
VL: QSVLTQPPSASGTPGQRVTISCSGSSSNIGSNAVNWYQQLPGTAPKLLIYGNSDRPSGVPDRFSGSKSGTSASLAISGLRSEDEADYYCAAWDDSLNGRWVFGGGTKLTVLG
notes: Only VH/VL tied to the clone; also called Antibody clone: 2A09

binding result [13]: no binding
Kd [16]: 713 nM
koff [17]: 0.337 s⁻¹
B7: 5G08 (antibody, human IgG1, V domains shown)
VH: EVQLLESGGGLVQPGGSLRLSCAASGFTFNNYGMHWVRQAPGKGLEWVAVISYDGSNRYYADSVKGRFTMSRDNSKNTLYLQMNSLRAEDTAVYYCARDRWNGMDVWGQGTLVTVSS
VL: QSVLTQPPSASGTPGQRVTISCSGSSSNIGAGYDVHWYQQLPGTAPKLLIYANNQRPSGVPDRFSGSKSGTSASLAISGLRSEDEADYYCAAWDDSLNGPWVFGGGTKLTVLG
notes: hFcγRIIB mAb, human IgG1 (WT); Only VH/VL tied to the clone; also called Antibody clone: 5G08

binding result [2]: no binding (tested: 10 µg/ml)
B10: 1C04 (antibody, human IgG1, V domains shown)
VH: EVQLLESGGGLVQPGGSLRLSCAASGFTFSSYAMSWVRQAPGKGLEWVSSISDSGAGRYYADSVEGRFTISRDNSKNTLYLQMNSLRAEDTAVYYCARTHDSGELLDAFDIWGQGTLVTVSS
VL: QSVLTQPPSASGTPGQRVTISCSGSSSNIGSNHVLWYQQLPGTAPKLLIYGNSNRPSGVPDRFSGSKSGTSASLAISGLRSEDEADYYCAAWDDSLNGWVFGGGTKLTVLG
notes: Only VH/VL tied to the clone; also called Antibody clone: 1C04
